In PMC12049912 (2025):

T1: p68 S551F (mp68; DDX5 S551F) peptide on H-2Kb (mouse)
T1 peptide: SNFVFAGI


Columns and labels:
[1] = molecular target: T1, p68 S551F (mp68; DDX5 S551F) peptide on …; assay: multimer staining
[2] = molecular target: T1, p68 S551F (mp68; DDX5 S551F) peptide on …; assay: cytokine release

Binder	binding result [1]	binding result [2]
T1-3 (TCR) alpha TRAV19 TRAJ40 CDR3: CAAGGFNTGNYKYVF beta TRBV19 TRBJ2-7 CDR3: CASSIRQGSGEQYF	no recognition	–
T3-3 (TCR) alpha TRAV13-4 TRAJ30 CDR3: CAMEHDTNAYKVIF beta TRBV12-1 TRBJ2-1 CDR3: CASSLRGYAEQFF	no recognition	–

The next lines start with the values.

binding result [1]	binding result [2]	Binder
no recognition	–	T3-3/2 (TCR) alpha TRAV19 TRAJ40 CDR3: CAAGGVNTGNYKYVF beta TRBV12-1 TRBJ2-1 CDR3: CASSLRGYAEQFF
–	recognises	1D9 (TCR) alpha TRAV1 TRAJ30 CDR3: CAVRSDTNAYKVIF beta TRBV19 TRBJ2-7 CDR3: CASSKRLSSYEQYF
